Assay results reported in WO2015116852A1 (dated 2015).

T1: Recombinant monkey monomeric IL-6R protein (Macaca fascicularis, extracellular domain) (Macaca fascicularis, UniProt P08887 21-330 (human entry))
T1 construct: also called monkey IL-6R; monkey receptor
T1 chain: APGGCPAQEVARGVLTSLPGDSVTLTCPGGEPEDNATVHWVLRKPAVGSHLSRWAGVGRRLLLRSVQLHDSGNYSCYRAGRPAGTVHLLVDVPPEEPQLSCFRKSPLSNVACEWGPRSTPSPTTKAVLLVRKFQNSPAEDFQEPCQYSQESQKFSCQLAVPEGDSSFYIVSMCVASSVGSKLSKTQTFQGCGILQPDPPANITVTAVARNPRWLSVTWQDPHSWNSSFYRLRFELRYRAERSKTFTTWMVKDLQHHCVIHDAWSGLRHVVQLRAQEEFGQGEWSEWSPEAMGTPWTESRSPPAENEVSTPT

T2: hIL-6R recombinant protein (human, UniProt P08887 20-358)
T2 construct: also called hlL-6R recombinant protein; human IL-6R
T2 sequence: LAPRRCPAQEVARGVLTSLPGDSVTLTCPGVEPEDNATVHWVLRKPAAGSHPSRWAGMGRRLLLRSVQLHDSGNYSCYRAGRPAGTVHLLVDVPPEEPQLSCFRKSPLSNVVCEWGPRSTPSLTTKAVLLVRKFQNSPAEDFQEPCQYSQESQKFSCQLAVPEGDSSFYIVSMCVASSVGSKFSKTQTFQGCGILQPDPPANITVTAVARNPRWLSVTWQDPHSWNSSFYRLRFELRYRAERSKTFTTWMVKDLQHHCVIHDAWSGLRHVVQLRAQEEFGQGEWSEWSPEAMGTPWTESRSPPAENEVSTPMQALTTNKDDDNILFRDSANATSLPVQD

T3: Recombinant human monomeric IL-6R protein (human, UniProt P08887 20-358)
T3 construct: also called monomeric hIL-6R; human receptor
T3 sequence: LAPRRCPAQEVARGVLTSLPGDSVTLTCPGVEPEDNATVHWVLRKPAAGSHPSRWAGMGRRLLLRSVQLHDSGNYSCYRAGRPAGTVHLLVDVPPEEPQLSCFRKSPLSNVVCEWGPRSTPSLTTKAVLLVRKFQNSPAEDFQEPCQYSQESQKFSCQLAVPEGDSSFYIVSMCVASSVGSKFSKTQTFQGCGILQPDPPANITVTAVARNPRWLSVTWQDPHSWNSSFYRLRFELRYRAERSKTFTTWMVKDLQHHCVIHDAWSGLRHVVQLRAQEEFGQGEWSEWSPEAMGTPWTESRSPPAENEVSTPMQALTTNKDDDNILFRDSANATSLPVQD


Experiments:
[1] = target: T1, Recombinant monkey monomeric IL-6R …; experiment: BIAcore, antibody captured on anti-mouse Fc, monomeric receptor injected
[2] = target: T2, hIL-6R recombinant protein; experiment: competition ELISA on plate-coated hIL-6R, competitor control antibody; similar SPR experiment
[3] = target: T3, Recombinant human monomeric IL-6R …; experiment: BIAcore, antibody captured on anti-mouse Fc, monomeric receptor injected

Binder	binding result [1]	binding result [2]	Kd [3] [nM]
VQ8A9-6 (antibody, V domains shown) VH: EVQLVESGGNLVQPGRSLRLSCAASGFIFDDYAMHWVRQAPGKGLEWVSGISWNSGSIGYADSVKGRFTISRDNAKNSLYLQMNSLRAEDTALYYCAKDGGSSWLPFVYYYGMDVWGQGTTVTVSS VL: EIVMTQSPATLSVSPGERATLSCRASQSISSNFAWYQQKPGQAPRLLIYGASTRATGIPARFSGSGSGTDFTLTISSLQSEDFAVYYCQQYSSWPPYTFGQGTKLEIK	binds	binds	
VV1G4-7 (antibody, V domains shown, also called W1 G4; W1 G4-7) VH: QVQLVQSGAEVKEPGASVKVSCKASGYTFTSYDIIWVRQATGQGLEWMGWMNPNSGNTGYTQNLQGRVTLTRNTSITTVYMELSSLSSEDTAVYYCARDYSSHYYGLDVWGQGTTVTVSS VL: DIQLTQSPSFLSTSIGDRVTITCWASQDISNYLAWYQQKPGKAPKLLIFVASTLQSGVPSRFSGSGSGTEFTLTISSLQPEDFATYYCQQFNSYPLTFGGGTKVEIK	no binding (tested: 1.25 - 40 nM)		0.241
VV6F12-11 (antibody, V domains shown) VH: QVQLVQSGAEVKEPGASVKISCKASGYTFTSYDIIWVRQATGQGLEWMGWMNPNSGDRGYTQNLQGRVTLTRDTSISTVYMELSSLRSEDTAVYYCARDYSNHYYGLDVWGQGTTVTVSS VL: DIQLTQSPSFLSASVGDRVTITCWASQDISNYLAWYQQKPGKAPKLLIFVASTLQSGVPSRFSGSGSGTEFTLTISSLQPEDFATYYCQQFNSYPLTFGGGTKVEIR		binds	
VV9A6-11 (antibody, V domains shown, also called W9A6) VH: QVQLVQSGAEVKKPGASVKVSCKASGYTFTSYGISWVRQAPGQGLEWMGWISAYNDDTNYAQKFQGRVTMTTDTSTSTAYMELRSLRSDDTAVYYCAREAQLVLYYYYGMDVWGQGTTVTVSS VL: EIVLTQSPATLSLSPGERATLSCRASQSVSSFLAWNQQKPGQAPRLLIYDASNRATGIPARFSGSGSGTDFTLTISSLEPEDFAVYYCQQRSNWPYIFGQGTKLEIK		binds	
VV6C10-3 (antibody, V domains shown, also called W6C10-3) VH: QVQLVQSGAEVKKPGASVKVSCKASGFNFFHYGITWVRQAPGQGLEWMGWISTYNGDTIYAQKVQGRVTMTTDTATSTAYMELRSLRSDDTAVYYCARSEQQVDYYFYGMDVWGQGTTVTVSS VL: EIVLTQSPATLSLSPGERATLSCRASQSVSSYLAWYQQKPGQAPRLLIYDASNRATGIPARFSGSGSGTDFTLTISSLEPEDFAFYYCQQRNNRPPFTFGPGTKVDVR		binds	
VV3D8-4 (antibody, V domains shown, also called W3D8) VH: EVQLVESGGGLVQPGRSLRLSCAASGFTFDDYALHWVRQAPGKGLEWVSGISWNSGRIGYADSVKGRFTISRDNAKNSLFLQMNSLRAEDTALYYCAKGRDAFDIWGQGTLVTVSS VL: DIQMTQSPSSVSASVGDRVTITCRASQGISSWLAWYQQKPGKAPKLLIYAASSLQSGVPSRFSGSGSGTDFTLTISSLQPEDFATYYCQQANSFPYTFGQGTKLEIK		binds	
VV6A9-5 (antibody, V domains shown, also called W6A9-5) VH: EVQLVESGGGLVQPGRSLRLSCAASGFTFDDYALHWVRQAPGKGLEWVSGVSWNGGRIGYADSVKGRFTISRDNAKNSLFLQMNSLRVEDTALYYCAKGRDAFDIWGQGTLVTVSS VL: DIQMTQSPSSVSASVGDRVTITCRASQGISSWLAWYQQKPGKAPKLLIYAASSLQSGVPSRFSGSGSGTDFTLTISSLQPEDFATYYCQHAYSFPYTFGQGTKLEIK	binds	binds	
VQ8F11-21 (antibody, V domains shown, also called mAb1; sarilumab) VH: EVQLVESGGGLVQPGRSLRLSCAASRFTFDDYAMHWVRQAPGKGLEWVSGISWNSGRIGYADSVKGRFTISRDNAENSLFLQMNGLRAEDTALYYCAKGRDSFDIWGQGTMVTVSS VL: DIQMTQSPSSVSASVGDRVTITCRASQGISSWLAWYQQKPGKAPKLLIYGASSLESGVPSRFSGSGSGTDFTLTISSLQPEDFASYYCQQANSFPYTFGQGTKLEIK	binds	binds	
